Reference: patent US20260265379A1

Target: PD-L1 at the surface of transduced cells (UniProt Q9NZQ7)
Test: flow cytometry, CHO-PD-L1 cells

Sequence of PD-L1 at the surface of transduced cells (Q9NZQ7 19-290 limits assumed): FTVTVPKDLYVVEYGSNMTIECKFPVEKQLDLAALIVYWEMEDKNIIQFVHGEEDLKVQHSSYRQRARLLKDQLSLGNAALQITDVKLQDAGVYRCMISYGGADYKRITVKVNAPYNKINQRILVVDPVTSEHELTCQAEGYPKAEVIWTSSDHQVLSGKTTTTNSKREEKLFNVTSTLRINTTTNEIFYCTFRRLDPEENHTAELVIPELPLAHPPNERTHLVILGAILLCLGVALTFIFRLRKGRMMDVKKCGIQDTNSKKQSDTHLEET

## Isotype Durvalumab (antibody)
  MFI at 10 nM: 38000 MFI
  MFI at 100 nM: 41600 MFI
